{"source": "the supplement of paper PMC9732359", "note": "± gives the uncertainty stated by the source."}
{"experiment": "protein stability index of a GFP-peptide fusion (yeast GPS) (PSI 1-4); higher = more stable; sorted into four equal gates, so the index is relative within each strain", "conditions": "pdr5∆", "procedure,_shortened": "(§1)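 Plasmids isolated from each sorting gate were PCR-amplified and Illumina-sequenced, and barcodes assigned the reads to strains. The gates, four of equal size, were set by GFP/Cherry fluorescence ratio on mid-log cultures in leucine-free medium. These cultures were yeast carrying a pooled library of tiled 17-residue yeast protein peptides fused downstream of GFP on a plasmid that also expresses Cherry. The protein stability index is the sum of every gate's read frequency times its gate number.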"}
{"sequence": "VITLLNNSSITLRCSVV [YCS4]", "protein stability index": "1.2 ± 0.062"}
{"sequence": "VIVELLPQSEWKAPSSI [DIS3]", "protein stability index": "2.57 ± 0.062"}
{"sequence": "VIWELDDSANIVNVNFM [DIS3]", "protein stability index": "2.85 ± 0.057"}
{"sequence": "VKLLKTTVPIVSKKRQK [POP3]", "protein stability index": "2.95 ± 0.069"}
{"experiment": "protein stability index of a GFP-peptide fusion (yeast GPS) (PSI 1-4); higher = more stable; sorted into four equal gates, so the index is relative within each strain", "conditions": "san1∆", "procedure,_shortened": "as §1"}
{"sequence": "TNQIFQSRRYNLRRHSD [SIN4]", "protein stability index": "3.04 ± 0.045"}
{"sequence": "TNQLVLLQKMLNLLNYQ [YML103C/NUP188]", "protein stability index": "1.29 ± 0.056"}
{"sequence": "TNSNNTPLQSQLNLNNL [PGD1]", "protein stability index": "3 ± 0.043"}
{"sequence": "TNTFEGSGNNNEIESRQ [SNU114]", "protein stability index": "3.25 ± 0.11"}
{"sequence": "TNWDDHAIIIFGYPETI [YMR153W/NUP53]", "protein stability index": "2.3 ± 0.077"}
{"sequence": "TPAEMSRPATTTRNGFM [FAS2]", "protein stability index": "2.52 ± 0.05"}
{"sequence": "TPESVKPANASHAIRLG [RGR1]", "protein stability index": "2.98 ± 0.045"}
{"sequence": "TPFSFGTANNNSNTTNQ [YJL041W/NSP1]", "protein stability index": "3.13 ± 0.035"}
{"sequence": "TPGSVSLSAYNLTDEGY [PRP8]", "protein stability index": "2.3 ± 0.094"}
{"sequence": "TPLKARQREMAEEQTKL [YLR018C/POM34]", "protein stability index": "3.31 ± 0.053"}
{"sequence": "TPLQSQLNLNNLTPANI [PGD1]", "protein stability index": "2.99 ± 0.039"}
{"sequence": "TPLRDEVTDKNYYYLFD [PRP8]", "protein stability index": "3.03 ± 0.048"}
{"sequence": "TPMDESSYDLLFNESFI [SRP72]", "protein stability index": "2.7 ± 0.1"}
{"sequence": "TPRGNHWMGSSVSGSPR [YMR129W/POM152]", "protein stability index": "3.01 ± 0.053"}
{"sequence": "TPSTEESRAQNVFGQDN [SWI3]", "protein stability index": "3.35 ± 0.054"}
{"sequence": "TPVSHNDDLYGKVTDVR [RPL1A]", "protein stability index": "2.81 ± 0.067"}
{"sequence": "TPVVLATPIPEEVQQAQ [RPS5]", "protein stability index": "3.1 ± 0.1"}
{"sequence": "TPYSNESGLVNADLDVK [RPO21]", "protein stability index": "3.02 ± 0.056"}
{"sequence": "TQAKRIFLQQFLQELLK [SWI1]", "protein stability index": "2.43 ± 0.082"}
{"sequence": "TQKTELEIDNKDSVTEC [SIR4]", "protein stability index": "2.78 ± 0.14"}
{"sequence": "TQLDDLQHELMISIIKL [YML103C/NUP188]", "protein stability index": "2.19 ± 0.28"}
{"sequence": "TQMDGFDQSTNVKVIMA [RPT3]", "protein stability index": "1.54 ± 0.077"}
{"sequence": "TQTFNGSIFTHETTFMT [YML031W/NDC1]", "protein stability index": "2.84 ± 0.035"}
{"sequence": "TQYKAGKASLFAQGKRR [RPL42A]", "protein stability index": "3.1 ± 0.097"}
{"sequence": "TRAQYLAFAKLVHSEYL [SRP68]", "protein stability index": "1.47 ± 0.094"}
{"sequence": "TREKVLEDKLRAVLTPL [RRP46]", "protein stability index": "2.91 ± 0.19"}
{"sequence": "TRKILEILNECHDELKA [MED4]", "protein stability index": "2.44 ± 0.085"}
{"sequence": "TRLKSLLKPFHVKVNDK [SIR3]", "protein stability index": "2.79 ± 0.075"}
{"sequence": "TRLVQLREFRITHNTNI [GRR1]", "protein stability index": "1.04 ± 0.26"}
{"sequence": "TRRKRRQGRSNRRGMLA [SNF5]", "protein stability index": "2.86 ± 0.11"}
{"sequence": "TSAASGDAAPAEEAAAE [RPP0]", "protein stability index": "3.13 ± 0.14"}
{"sequence": "TSANGIVQFTYGGDGLD [RPO31]", "protein stability index": "2.24 ± 0.15"}
{"sequence": "TSAVELGAIEQILIFAA [YJL039C/NUP192]", "protein stability index": "1.77 ± 0.11"}
{"sequence": "TSELGNDDFSEVFEFKT [BRR2]", "protein stability index": "2.41 ± 0.083"}
{"sequence": "TSLATSAGQPNLLLSAS [ASC1]", "protein stability index": "2.03 ± 0.062"}
{"sequence": "TSLKCLVNRKPIPFEFQ [SNF2]", "protein stability index": "2.13 ± 0.053"}
{"sequence": "TSLLDSLISVLEASLNS [YJL039C/NUP192]", "protein stability index": "1.87 ± 0.19"}
{"sequence": "TSPTMPDYYVSILSFVD [RPT2]", "protein stability index": "2.27 ± 0.042"}
{"sequence": "TSRKALEEVSLKWIDTA [RPL3]", "protein stability index": "1.82 ± 0.12"}
{"sequence": "TSSTHERKSKTYVITKN [RET1]", "protein stability index": "2.3 ± 0.064"}
{"sequence": "TSTEKLYKLNDKIAVAV [PRE9]", "protein stability index": "3.1 ± 0.081"}
{"sequence": "TSTGIIRCHREDCDLVI [POP5]", "protein stability index": "2.71 ± 0.075"}
{"sequence": "TSTNGDSENNEENSSSN [RGR1]", "protein stability index": "3.36 ± 0.11"}
{"sequence": "TSYKKWSFDLPEMSNLY [PRP8]", "protein stability index": "2.26 ± 0.058"}
{"sequence": "TTARAKARAKKTKKEKG [RPN2]", "protein stability index": "3.16 ± 0.079"}
{"sequence": "TTDDKSMDTKKKHKQKK [BRN1]", "protein stability index": "3.51 ± 0.068"}
{"sequence": "TTGSIFEKDLMAYFDEN [BRN1]", "protein stability index": "3.17 ± 0.043"}
{"sequence": "TTLKLSPSPILLTSAGC [NUT1]", "protein stability index": "1.45 ± 0.09"}
{"sequence": "TTPEINNFIVERVQSDE [SRP68]", "protein stability index": "3.37 ± 0.097"}
{"sequence": "TTSEATANDRQINNVHL [RPN4]", "protein stability index": "2.49 ± 0.087"}
{"sequence": "TTSERVSNENKKNIDYQ [RRI1]", "protein stability index": "3.13 ± 0.085"}
{"sequence": "TTSLNPIQSKVFHAAFE [BRR2]", "protein stability index": "2.08 ± 0.11"}
{"sequence": "TTTRIQSQQAQPSDVMF [MED2]", "protein stability index": "3 ± 0.063"}
{"sequence": "TTTVLKRYANHTQDIIG [RET1]", "protein stability index": "3.02 ± 0.051"}
{"sequence": "TTYSVDDYYKEIIGGGS [ISW2]", "protein stability index": "3.19 ± 0.088"}
{"sequence": "TVDLALFGSPPFILEYD [YMR129W/POM152]", "protein stability index": "1.9 ± 0.087"}
{"sequence": "TVELQVGLKNYDPQRDK [RPL1A]", "protein stability index": "3.12 ± 0.094"}
{"sequence": "TVPELEIPTQIYRTTRQ [ARP9]", "protein stability index": "2.35 ± 0.08"}
{"sequence": "TVTIASSLNLEDTPAND [RPB8]", "protein stability index": "2.65 ± 0.06"}
{"sequence": "TYGVPGSENKRGSLDSE [NUT1]", "protein stability index": "3.23 ± 0.15"}
{"sequence": "TYNEDIPVEILVRRLSD [PRE9]", "protein stability index": "3.14 ± 0.064"}
{"sequence": "TYNMIDAAAEKRNGDEV [ARP7]", "protein stability index": "3.13 ± 0.055"}
{"sequence": "VAARAEILRIHSRKMNL [RPT6]", "protein stability index": "2.5 ± 0.081"}
{"sequence": "VAIACDLRLGSQSLGVS [PUP3]", "protein stability index": "2.85 ± 0.17"}
{"sequence": "VARIYASFNDTFVHVTD [RPS14A]", "protein stability index": "2.12 ± 0.07"}
{"sequence": "VASQSPHATATEKEPVP [SNF6]", "protein stability index": "2.88 ± 0.15"}
{"sequence": "VASRHPSESEHPIRVLM [YDL116W/NUP84]", "protein stability index": "2.9 ± 0.23"}
{"sequence": "VCFNNLVDENTDYLYRR [YCS4]", "protein stability index": "2.48 ± 0.081"}
{"sequence": "VDIEYTRGRNIIMHKDV [RET1]", "protein stability index": "2.92 ± 0.064"}
{"sequence": "VDPVYKDVAKPTGPKTA [FAS2]", "protein stability index": "2.52 ± 0.08"}
{"sequence": "VDRSKYNIELPLPPRID [RPT1]", "protein stability index": "3.15 ± 0.094"}
{"sequence": "VDVAKDINVKDLKASQR [RPT6]", "protein stability index": "2.63 ± 0.18"}
{"sequence": "VDVELITSINVENDTFI [FAS2]", "protein stability index": "3.09 ± 0.086"}
{"sequence": "VDVFAMPQSGTGVSVEA [RPN11]", "protein stability index": "3.41 ± 0.076"}
{"sequence": "VEDVSQNAADLQQICRV [RPL9A]", "protein stability index": "2.76 ± 0.093"}
{"sequence": "VEEYTWSSLLNEGLVEY [RPB2]", "protein stability index": "3.11 ± 0.089"}
{"sequence": "VEGPKFTIDAKPPISDS [YLR335W/NUP2]", "protein stability index": "3.29 ± 0.048"}
{"sequence": "VELLDSNDRVNPLIELT [ITC1]", "protein stability index": "3.28 ± 0.075"}
{"sequence": "VFHAAFEGDSNMLICAP [BRR2]", "protein stability index": "2.33 ± 0.045"}
{"sequence": "VFLSNLVETCLNDLVES [BRR2]", "protein stability index": "1.57 ± 0.11"}
{"sequence": "VFQAKMMDMLKQTGRDQ [RPN11]", "protein stability index": "2.52 ± 0.077"}
{"sequence": "VGCKNLERLTLVFCKHI [GRR1]", "protein stability index": "1.25 ± 0.11"}
{"sequence": "VGEMKLLKKKDDPSKVR [YLR335W/NUP2]", "protein stability index": "2.98 ± 0.091"}
{"sequence": "VGGHNVTIREQINIMPS [SIR3]", "protein stability index": "2.71 ± 0.071"}
{"sequence": "VGHLSILPQQSKLKLKN [ECM29]", "protein stability index": "1.88 ± 0.13"}
{"sequence": "VGIDTHTATDIYQTLIA [SNF2]", "protein stability index": "1.85 ± 0.05"}
{"sequence": "VGKFLGYVSSLVEPSKV [FAS1]", "protein stability index": "1.69 ± 0.12"}
{"sequence": "VGKTVKQLIMESQEKYM [NSL1]", "protein stability index": "2.8 ± 0.067"}
{"sequence": "VGQAGRPKKITGWITQS [RPN1]", "protein stability index": "2.21 ± 0.12"}
{"sequence": "VGRRAANLRVLNSYWVN [RPL15A]", "protein stability index": "1.91 ± 0.11"}
{"sequence": "VGVENNGQYAAFVKDMQ [RPC37]", "protein stability index": "3.19 ± 0.092"}
{"sequence": "VGVNKDSYLILDTLPSE [RPT5]", "protein stability index": "3.19 ± 0.078"}
{"sequence": "VGVVFGSGAANENPYNN [COR1]", "protein stability index": "3.21 ± 0.087"}
{"sequence": "VHSSSPSTSSNMDVGNP [GAL11]", "protein stability index": "2.69 ± 0.075"}
{"sequence": "VIKRLEASTVPWGDYLQ [BRR2]", "protein stability index": "1.54 ± 0.11"}
{"sequence": "VITLLNNSSITLRCSVV [YCS4]", "protein stability index": "1.21 ± 0.12"}
{"sequence": "VIVELLPQSEWKAPSSI [DIS3]", "protein stability index": "2.02 ± 0.062"}
